Blank lines part the entries; values can stand above or below the binder they belong to.
B1: CHCHD4-SPS (C53S/C55S), full length (natural protein, human, UniProt Q8N4Q1 1-142, looked up)
chain: MSYCRQEGKDRIIFVTKEDHETPSSAELVADDPNDPYEEHGLILPNGNINWNSPSLGGMASGPCGEQFKSAFSCFHYSTEEIKGSDCVDQFRAMQECMQKYPDLYPQEDEDEEEEREKKPAEQAEETAPIEATATKEEEGSS
notes: source: E. coli Rosetta2Gami(DE3), purified (Ni-NTA, PreScission cleavage, subtractive Ni-NTA, Superdex 75); not shown: GB1-6X-His, N-terminal, cleaved

Assays:
both import substrates = experiment: ITC; 700-750 µM CPC-inactivated CHCHD4 constructs titrated into 50 µM unfolded substrate; 25 mM HEPES pH 7.5, 150 mM NaCl, 1 mM TCEP; 25 °C
Atto488-AIF(78-613)/NADH [1] = target: T1, Atto488-AIF(78-613)/NADH (human, UniProt O95831 78-613, ATTO 488 (NHS ester) on the N-terminus); experiment: MST; CHCHD4 constructs titrated (1.8 nM–15 or 30 µM) into 100 nM Atto488-AIF(78-613) with unlabeled AIF and NADH (pre-formed charge-transfer complex); 25 mM HEPES pH 7.5, 150 mM NaCl, 0.01% Tween-20, 5 mM TCEP; 25 °C; first block of Table 1 (Fig. 1B); settings: both partners purified
T1 construct: Apoptosis-inducing factor (AIF), human, residues 78-613; also called Atto488-AIF-NADH; Atto488-AIF/NADH

Atto488-AIF(78-613)/NADH [2] = target: T1, Atto488-AIF(78-613)/NADH; experiment: MST; CHCHD4 interface mutants titrated (1.8 nM–15 or 30 µM) into 100 nM Atto488-AIF(78-613) with unlabeled AIF and NADH; same buffer, 25 °C; third block of Table 1 (Fig. 2A), fitted with a Hill coefficient; settings: both partners purified
[3] = target: B1; experiment: MST; CHCHD4-SPS titrated (15 nM–30 µM) into 100 nM unfolded Atto488-ΔN-CHCHD4-SPS in the presence of AIF(78-613) and NADH (2x stock 30 µM AIF/300 µM NADH); 25 mM HEPES pH 7.5, 150 mM NaCl, 0.01% Tween-20, 5 mM TCEP; 25 °C; a sample with added CHCHD4-N45 showed decreased binding; settings: both partners purified
[4] = target: T2, CHCHD6, unfolded and reduced (human, UniProt Q9BRQ6 1-235); experiment: ITC; 700-750 µM CPC-inactivated CHCHD4 constructs titrated into 50 µM unfolded substrate; 25 mM HEPES pH 7.5, 150 mM NaCl, 1 mM TCEP; 25 °C; settings: both partners purified
T2 construct: CHCHD6 (MIC25), human, CX9C import substrate; construct from the DNASU Plasmid Repository inserted into pET30a; also called unfolded CHCHD6 substrate; MIC25; source: E. coli Rosetta2Gami(DE3), purified; unfolded by heating at 70 °C for 20 min with TCEP; not shown: GB1-6X-His, N-terminal, cleaved
T2 sequence (looked up): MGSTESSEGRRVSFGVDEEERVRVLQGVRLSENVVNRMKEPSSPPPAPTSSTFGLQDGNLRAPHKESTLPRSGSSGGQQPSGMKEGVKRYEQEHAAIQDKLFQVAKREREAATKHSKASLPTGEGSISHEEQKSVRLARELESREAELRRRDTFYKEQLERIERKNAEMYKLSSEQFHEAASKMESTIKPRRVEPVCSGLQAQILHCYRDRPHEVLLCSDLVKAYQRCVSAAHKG

[5] = target: the molecule itself; experiment: SEC; Superdex 75 10/300, 25 mM HEPES pH 7.5, 150 mM NaCl, without reducing agent (also ± 5 mM βME and after 0-10 mM TCEP); 200 µM samples; monomer against disulfide-mediated dimer
[6] = target: T3, CHCHD4-SPS (C53S/C55S), full length (human, UniProt Q8N4Q1 1-142, C53S | C55S, heat-unfolded and TCEP-reduced (free cysteines). The printed accession E5RGN4 is not among the candidates; the canonical human CHCHD10 entry Q8WYQ3 (used for the AlphaFold model) is taken instead. …); experiment: ITC
T3 sequence: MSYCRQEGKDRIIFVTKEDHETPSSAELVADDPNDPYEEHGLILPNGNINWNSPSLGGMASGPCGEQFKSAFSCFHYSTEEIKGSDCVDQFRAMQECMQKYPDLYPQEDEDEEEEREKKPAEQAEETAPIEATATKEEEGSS

[7] = target: T4, ΔN-CHCHD4-SPS (residues 40-142, C53S/C55S) (human, UniProt Q8N4Q1 40-142, C53S | C55S, heat-unfolded and TCEP-reduced (free cysteines). The printed accession E5RGN4 is not among the candidates; the canonical human CHCHD10 entry Q8WYQ3 (used for the AlphaFold model) is taken instead. …); experiment: ITC
T4 sequence: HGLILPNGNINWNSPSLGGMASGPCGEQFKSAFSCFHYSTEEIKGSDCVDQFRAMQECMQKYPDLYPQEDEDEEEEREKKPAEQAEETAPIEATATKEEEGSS

[8] = target: T5, CHCHD4-AIA-A-SPS (I12A/F14A/H20A/C53S/C55S) (human, UniProt Q8N4Q1 1-142, I12A | F14A | H20A | C53S | C55S, heat-unfolded and TCEP-reduced (free cysteines). The printed accession E5RGN4 is not among the candidates; the canonical human CHCHD10 entry Q8WYQ3 (used for the AlphaFold model) is taken instead. …); experiment: ITC
T5 sequence: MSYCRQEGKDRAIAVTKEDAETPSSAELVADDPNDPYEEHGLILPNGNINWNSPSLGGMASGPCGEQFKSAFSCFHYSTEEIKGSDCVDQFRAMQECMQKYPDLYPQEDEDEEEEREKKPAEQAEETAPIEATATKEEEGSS

AIF(104-613)-W196A = target: T6, AIF(104-613)-W196A (human, UniProt O95831 104-613, W196A); experiment: crystal structure; AIF(104-613)-W196A-CHCHD4(1-45) chimera, hanging drop, 0.1 M HEPES pH 8, 0.1 M NaCl, 18% PEG3350; CHCHD4 N45 linked to the C-terminus of AIF by …; AIF dimer with N45 resolved on both monomers; settings: both partners purified
T6 construct: Apoptosis-inducing factor (AIF), human, residues 104-613; Stands only for the AIF half of the crystallised chimera, so that the AIF-CHCHD4 contact can be written as a pair; also called dimer-permissive AIF (104-613) W196A mutant; source: E. coli Rosetta2(DE3), purified, as the AIF part of the chimera m17

[9] = target: T7, CHCHD4-AIA-A-SPS (I12A/F14A/H20A/C53S/C55S) (human, UniProt Q8N4Q1 1-142, I12A | F14A | H20A | C53S | C55S); experiment: ITC
T7 sequence: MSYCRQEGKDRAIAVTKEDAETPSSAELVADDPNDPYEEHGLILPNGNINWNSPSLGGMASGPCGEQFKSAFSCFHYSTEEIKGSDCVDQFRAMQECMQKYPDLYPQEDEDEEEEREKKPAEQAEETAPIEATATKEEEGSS

[10] = target: T8, CHCHD4-SPS (C53S/C55S), full length (human, UniProt Q8N4Q1 1-142, C53S | C55S); experiment: ITC
T8 sequence: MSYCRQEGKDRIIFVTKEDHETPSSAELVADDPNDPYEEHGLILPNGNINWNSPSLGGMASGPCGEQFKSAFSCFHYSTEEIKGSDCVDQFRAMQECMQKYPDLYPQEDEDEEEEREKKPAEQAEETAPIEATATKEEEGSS

[11] = target: T9, ΔN-CHCHD4-SPS (residues 40-142, C53S/C55S) (human, UniProt Q8N4Q1 40-142, C53S | C55S); experiment: ITC
T9 sequence: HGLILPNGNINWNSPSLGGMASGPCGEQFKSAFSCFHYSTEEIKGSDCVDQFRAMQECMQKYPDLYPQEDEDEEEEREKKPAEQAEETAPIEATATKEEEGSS

T1 sequence (O95831 78-613): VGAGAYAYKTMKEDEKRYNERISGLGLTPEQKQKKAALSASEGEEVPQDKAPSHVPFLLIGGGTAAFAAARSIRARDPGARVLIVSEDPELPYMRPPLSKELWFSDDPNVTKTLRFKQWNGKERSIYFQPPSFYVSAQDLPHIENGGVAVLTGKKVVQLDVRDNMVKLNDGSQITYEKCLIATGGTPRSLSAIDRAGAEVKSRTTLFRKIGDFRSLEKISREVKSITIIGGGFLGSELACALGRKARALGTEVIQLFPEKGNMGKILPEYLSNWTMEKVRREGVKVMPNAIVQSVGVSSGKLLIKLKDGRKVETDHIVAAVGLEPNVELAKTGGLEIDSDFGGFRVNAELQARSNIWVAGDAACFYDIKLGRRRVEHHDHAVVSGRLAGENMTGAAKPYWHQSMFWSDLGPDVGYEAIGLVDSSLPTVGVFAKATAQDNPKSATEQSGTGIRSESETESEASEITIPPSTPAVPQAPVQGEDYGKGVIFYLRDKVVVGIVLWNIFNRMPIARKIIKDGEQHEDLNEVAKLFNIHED
T6 sequence (O95831 104-613 W196A): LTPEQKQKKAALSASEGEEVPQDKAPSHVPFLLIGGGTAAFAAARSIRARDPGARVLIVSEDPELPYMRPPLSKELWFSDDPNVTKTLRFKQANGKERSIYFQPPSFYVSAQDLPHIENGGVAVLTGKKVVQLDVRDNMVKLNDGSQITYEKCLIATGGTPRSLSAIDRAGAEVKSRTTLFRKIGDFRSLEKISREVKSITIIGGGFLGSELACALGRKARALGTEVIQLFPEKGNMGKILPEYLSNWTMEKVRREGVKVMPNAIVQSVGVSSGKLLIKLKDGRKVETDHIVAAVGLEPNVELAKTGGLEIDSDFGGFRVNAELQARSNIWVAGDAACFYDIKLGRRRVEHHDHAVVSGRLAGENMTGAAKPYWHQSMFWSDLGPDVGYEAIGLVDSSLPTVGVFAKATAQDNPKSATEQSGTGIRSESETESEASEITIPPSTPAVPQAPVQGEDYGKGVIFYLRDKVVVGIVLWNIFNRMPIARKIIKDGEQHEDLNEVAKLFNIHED

Binder: B1
- Kd (both import substrates): 18 to 40 µM
- Kd (Atto488-AIF(78-613)/NADH [1]): 0.23 µM

B2: CHCHD4, wild type, full length (natural protein, human, UniProt Q8N4Q1 1-142, looked up)
chain: MSYCRQEGKDRIIFVTKEDHETPSSAELVADDPNDPYEEHGLILPNGNINWNCPCLGGMASGPCGEQFKSAFSCFHYSTEEIKGSDCVDQFRAMQECMQKYPDLYPQEDEDEEEEREKKPAEQAEETAPIEATATKEEEGSS
notes: also called CHCHD4-WT; MIA40; source: E. coli Rosetta2Gami(DE3), purified (Ni-NTA, PreScission cleavage, subtractive Ni-NTA, Superdex 75); not shown: GB1-6X-His, N-terminal, cleaved
- Kd (Atto488-AIF(78-613)/NADH [2]): 0.18 µM
- Kd (Atto488-AIF(78-613)/NADH [1]): 0.58 µM

B4: CHCHD4-L28D (natural protein, human, UniProt Q8N4Q1 1-142, looked up)
chain: MSYCRQEGKDRIIFVTKEDHETPSSAEDVADDPNDPYEEHGLILPNGNINWNCPCLGGMASGPCGEQFKSAFSCFHYSTEEIKGSDCVDQFRAMQECMQKYPDLYPQEDEDEEEEREKKPAEQAEETAPIEATATKEEEGSS
notes: CHCHD4/MIA40, human, full length; source: E. coli Rosetta2Gami(DE3), purified (Ni-NTA, PreScission cleavage, subtractive Ni-NTA, Superdex 75); not shown: GB1-6X-His, N-terminal, cleaved
- Kd (Atto488-AIF(78-613)/NADH [2]): 0.24 µM

B8: ΔN-CHCHD4 (residues 40-142) (domain or fragment, human, UniProt Q8N4Q1 40-142, looked up)
chain: HGLILPNGNINWNCPCLGGMASGPCGEQFKSAFSCFHYSTEEIKGSDCVDQFRAMQECMQKYPDLYPQEDEDEEEEREKKPAEQAEETAPIEATATKEEEGSS
notes: also called N-terminal truncation mutant; source: E. coli Rosetta2Gami(DE3), purified (Ni-NTA, PreScission cleavage, subtractive Ni-NTA, Superdex 75); not shown: GB1-6X-His, N-terminal, cleaved
- binding result [5]: binds

B11: CHCHD6, unfolded and reduced (natural protein)
chain: MGSTESSEGRRVSFGVDEEERVRVLQGVRLSENVVNRMKEPSSPPPAPTSSTFGLQDGNLRAPHKESTLPRSGSSGGQQPSGMKEGVKRYEQEHAAIQDKLFQVAKREREAATKHSKASLPTGEGSISHEEQKSVRLARELESREAELRRRDTFYKEQLERIERKNAEMYKLSSEQFHEAASKMESTIKPRRVEPVCSGLQAQILHCYRDRPHEVLLCSDLVKAYQRCVSAAHKG
- Kd [9]: 8.3 µM
- Kd [10]: 26.5 µM
- Kd [11]: 14.9 µM

Second part, the binder after the results:

- Kd (Atto488-AIF(78-613)/NADH [2]): 3 µM
B3: CHCHD4-AIA (I12A/F14A) (natural protein, human, UniProt Q8N4Q1 1-142, looked up)
chain: MSYCRQEGKDRAIAVTKEDHETPSSAELVADDPNDPYEEHGLILPNGNINWNCPCLGGMASGPCGEQFKSAFSCFHYSTEEIKGSDCVDQFRAMQECMQKYPDLYPQEDEDEEEEREKKPAEQAEETAPIEATATKEEEGSS
notes: CHCHD4/MIA40, human, full length; The methods print F12A/I14A for this mutant; the results print I12A/F14A; also called β-hairpin mutant; source: E. coli Rosetta2Gami(DE3), purified (Ni-NTA, PreScission cleavage, subtractive Ni-NTA, Superdex 75); not shown: GB1-6X-His, N-terminal, cleaved

- binding result [3]: binds
B5: Atto488-ΔN-CHCHD4-SPS, unfolded (domain or fragment, human, UniProt Q8N4Q1 40-142, looked up)
chain: HGLILPNGNINWNSPSLGGMASGPCGEQFKSAFSCFHYSTEEIKGSDCVDQFRAMQECMQKYPDLYPQEDEDEEEEREKKPAEQAEETAPIEATATKEEEGSS
modifications: ATTO 488 (NHS ester) on the N-terminus
notes: also called unfolded CHCH substrate; unfolded fluorescent substrate; not shown: GB1-6X-His, N-terminal, cleaved

- binding result [4]: binds
B6: CHCHD4-AIA-A-SPS (I12A/F14A/H20A/C53S/C55S) (natural protein, human, UniProt Q8N4Q1 1-142, looked up)
chain: MSYCRQEGKDRAIAVTKEDAETPSSAELVADDPNDPYEEHGLILPNGNINWNSPSLGGMASGPCGEQFKSAFSCFHYSTEEIKGSDCVDQFRAMQECMQKYPDLYPQEDEDEEEEREKKPAEQAEETAPIEATATKEEEGSS
notes: as for B4

- binding result [4]: binds
B7: ΔN-CHCHD4-SPS (residues 40-142, C53S/C55S) (domain or fragment, human, UniProt Q8N4Q1 40-142, looked up)
chain: HGLILPNGNINWNSPSLGGMASGPCGEQFKSAFSCFHYSTEEIKGSDCVDQFRAMQECMQKYPDLYPQEDEDEEEEREKKPAEQAEETAPIEATATKEEEGSS
notes: Folded, as titrant in ITC and in analytical SEC; also called ΔN-SPS; source: E. coli Rosetta2Gami(DE3), purified (Ni-NTA, PreScission cleavage, subtractive Ni-NTA, Superdex 75); not shown: GB1-6X-His, N-terminal, cleaved

- Kd [6]: 20.4 µM
- Kd [7]: 6.4 µM
- Kd [8]: 4.5 µM
B9: CHCHD10, unfolded and reduced (natural protein)
chain: MPRGSRSAASRPASRPAAPSAHPPAHPPPSAAAPAPAPSGQPGLMAQMATTAAGVAVGSAVGHVMGSALTGAFSGGSSEPSQPAVQQAPTPAAPQPLQMGPCAYEIRQFLDCSTTQSDLSLCEGFSEALKQCKYYHGLSSLP

- binding result (AIF(104-613)-W196A): binds
- Kd (Atto488-AIF(78-613)/NADH [1]): 0.63 µM
B10: CHCHD4-N45 (residues 1-45) (domain or fragment, human, UniProt Q8N4Q1 1-45, looked up)
chain: MSYCRQEGKDRIIFVTKEDHETPSSAELVADDPNDPYEEHGLILP
notes: In the crystal structure (PDB 8VGY) the same residues 1-45 stood linked to the C-terminus of AIF(104-613)-W196A; also called CHCHD4(1-45); source: E. coli Rosetta2Gami(DE3), purified (Ni-NTA, PreScission cleavage, subtractive Ni-NTA, Superdex 75); not shown: GB1-6X-His, N-terminal, cleaved

From PMC11832770, “NADH-bound AIF activates the mitochondrial CHCHD4/MIA40 chaperone by a substrate-mimicry mechanism” (The EMBO Journal, 2025)
